B1: unnamed (protein)
chain: MKFRALLFSASLIAILFNGLTINTVNAQTNDFLYGDQLPDAPELSSRGEYKVGVKTVNLVNPNQVDILNSKEGNDPTYDRPITIEVWYPANVGDDAKTVVYDEVMGTRGDSLRPLTPFTFKGRAYRDATPKTGNKFPLVVVSHGYVGSRYLMTYLTENLASKGYIVAAIDHTDSTFKDANAFQSTLLNRPKDIRFVINEMEKMGAKGSKNNLEGVVDANNTAIIGYSMGGYGVLNVGGAGYSAGLAQFFTGMTGGSTAISVHTAGNAAYEKMIDARIKAIVAFAPWGMERGVWDAEGLKGLKTPTFFIAGSQDDISGYEKGIKAIYEGAVNADRYLLTYMNARHNVAPNPPPAEALAPGLHIDEYYRYAEPSWDQRKMNNINQHFVTAFIGKHLKNQDSTKFLEVQEDSNEKDWTGFKPRSSTGMELLHAQPAN
B2: unnamed (protein)
chain: MPILNRFAHFQLILCFLISNLVLNAQTGSFVYGDALPDAPELSARGSYAVGVRTLDFVNKGQADVLNSKNGIDPIYDRPLKVEVWYPAQLAEGAKETVVYDEVMGTAHDSLRPLTPITFKGRASRDAAPLTTDGSFPLLVVAHGYVGSRYLMTYLTENLASKGYVVVAIDHTDSTFRDASPFASTLVNRAKDISFVLNQTVNLGKAADNNFLAGLVDSENIGIIGYSMGGYGVLNVAGAGYSDGLVGFFSGMTGGSKAIVDLAMSNPDFPKVDPRIKAVVAFAPWGMERGIWDAEGLKGLKVPTFFIAGSQDDISGYEKGIKAIYTGAVNADRYLLTYENARHNVAPNPPPAESFEPGLHIDEYYRYAEPSWDERKINNVNQHFITAFLGIHLKQKDYSKFLELQENSNEKDWTGFKARSSTGMELLHDKPAP

What follows are proteins tested on pNP-C8 (assay: Proxy for plastic degradation [Absorbance @ 405nm]). Conditions: 4 °C.

Protein | Proxy for plastic degradation [%]
B1 | 90
B2 | 95

Same assay, conditions: 10 °C

Protein | Proxy for plastic degradation [%]
B1 | 90
B2 | 70

Same assay, conditions: 20 °C

Protein | Proxy for plastic degradation [%]
B1 | 90
B2 | 90

Same assay, conditions: 30 °C

Protein | Proxy for plastic degradation [%]
B1 | 95
B2 | 90

Same assay, conditions: 40 °C

Protein | Proxy for plastic degradation [%]
B1 | 100
B2 | 100

Same assay, conditions: 50 °C

Protein | Proxy for plastic degradation [%]
B1 | 95
B2 | 90

Same assay, conditions: 60 °C

Protein | Proxy for plastic degradation [%]
B1 | 35
B2 | 10

Same assay, conditions: 70 °C

Protein | Proxy for plastic degradation [%]
B1 | 5
B2 | 15

Same assay, conditions: 80 °C

Protein | Proxy for plastic degradation [%]
B1 | 30
B2 | 25

Same assay, conditions: 90 °C

Protein | Proxy for plastic degradation [%]
B1 | 0
B2 | 20

Same assay, conditions: pH 3

Protein | Proxy for plastic degradation [%]
B1 | 0
B2 | 0

Same assay, conditions: pH 4

Protein | Proxy for plastic degradation [%]
B1 | 5
B2 | 0

Same assay, conditions: pH 5

Protein | Proxy for plastic degradation [%]
B1 | 55
B2 | 0

Same assay, conditions: pH 9

Protein | Proxy for plastic degradation [%]
B1 | 60
B2 | 0

Same assay, conditions: pH 9.2

Protein | Proxy for plastic degradation [%]
B1 | 80
B2 | 0

Same assay, conditions: pH 10.2

Protein | Proxy for plastic degradation [%]
B1 | 55
B2 | 0

— the PETadex activity labels (doi:10.1128/aem.01698-25)
